Numbering of substitutions follows the chain as printed. In names and notes the source's numbering stands.
T1: EsCas13d, nuclease-dead (Eubacterium siraeum, UniProt B0MS50, R295A;H300A;R849A;H854A)
T1 sequence: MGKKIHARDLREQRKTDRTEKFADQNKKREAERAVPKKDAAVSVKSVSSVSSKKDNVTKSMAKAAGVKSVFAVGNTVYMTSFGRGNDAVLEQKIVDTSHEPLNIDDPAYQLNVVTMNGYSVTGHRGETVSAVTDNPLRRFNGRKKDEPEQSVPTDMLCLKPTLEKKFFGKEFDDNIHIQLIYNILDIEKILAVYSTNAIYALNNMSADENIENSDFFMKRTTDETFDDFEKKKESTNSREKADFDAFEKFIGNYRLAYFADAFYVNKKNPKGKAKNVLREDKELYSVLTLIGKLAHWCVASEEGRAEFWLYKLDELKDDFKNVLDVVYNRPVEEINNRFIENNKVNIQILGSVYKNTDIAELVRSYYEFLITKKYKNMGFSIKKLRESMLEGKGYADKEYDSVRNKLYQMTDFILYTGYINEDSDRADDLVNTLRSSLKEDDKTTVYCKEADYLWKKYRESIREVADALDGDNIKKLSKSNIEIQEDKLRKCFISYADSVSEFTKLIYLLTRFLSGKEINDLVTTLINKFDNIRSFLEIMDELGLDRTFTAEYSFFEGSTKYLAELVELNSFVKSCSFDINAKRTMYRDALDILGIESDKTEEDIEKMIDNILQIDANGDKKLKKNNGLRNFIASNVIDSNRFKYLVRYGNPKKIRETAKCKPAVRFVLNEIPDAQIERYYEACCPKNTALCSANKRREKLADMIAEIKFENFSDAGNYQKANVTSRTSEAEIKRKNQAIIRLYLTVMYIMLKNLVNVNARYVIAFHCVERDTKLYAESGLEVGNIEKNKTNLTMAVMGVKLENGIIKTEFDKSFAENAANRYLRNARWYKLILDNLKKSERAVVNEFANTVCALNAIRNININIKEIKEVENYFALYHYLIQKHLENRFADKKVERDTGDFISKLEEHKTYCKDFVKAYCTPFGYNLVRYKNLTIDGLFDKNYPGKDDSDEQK

B1: target 1 complement block 6-10 (mixed)
RNA 1: CACCCGUGCAAAAAUGCAGGGGUCUAAAACUGAGCGGAUAACCUCUCUAUGG
RNA 2: GGGAAUGGAUCCACAUCUACGAAUUCGUACCAUAGAGAGGUAUAGGGCUCACCGAGAUCGGAAGAGCACACGU
B2: target 1 insA 3' of 22,insC 3' of 1 (mixed)
RNA 1: B1 RNA 1
RNA 2: GGGAAUGGAUCCACAUCUACGAAUUCGUACACAUAGAGAGGUUAUCCGCUCACCCGAGAUCGGAAGAGCACACGU
B3: target 1 C6U,C22A (mixed)
RNA 1: B1 RNA 1
RNA 2: B1 RNA 2 with C30A, A42U, U43A, A44U, G45C, G46U
B4: target 1 insA 3' of 15,insA 3' of 2 (mixed)
RNA 1: B1 RNA 1
RNA 2: B2 RNA 2 with A31C, C32A, A33U, U34A, A35G, G36A, A37G, G38A, C53A
B5: target 1 U11A,G12A (mixed)
RNA 1: B1 RNA 1
RNA 2: B1 RNA 2 with G40A, U41A, A42U, U43A, A44U, G45C, G46C
B6: target 1 U8C,G17C (mixed)
RNA 1: B1 RNA 1
RNA 2: B1 RNA 2 with G35C, A42U, U43A, A44C, G45C, G46C
B7: target 1 C6G,A16G (mixed)
RNA 1: B1 RNA 1
RNA 2: B1 RNA 2 with A36G, A42U, U43A, A44U, G45C
B8: target 1 insC 3' of 14,insU 3' of 4 (mixed)
RNA 1: B1 RNA 1
RNA 2: GGGAAUGGAUCCACAUCUACGAAUUCGUACCAUAGAGACGGUUAUCCGCUUCACCGAGAUCGGAAGAGCACACGU
B9: target 1 insA 3' of 15,insG 3' of 1 (mixed)
RNA 1: B1 RNA 1
RNA 2: B8 RNA 2 with C39A, U51C, C52A, A53G
B10: target 1 insA 3' of 15,insC 3' of 1 (mixed)
RNA 1: B1 RNA 1
RNA 2: B8 RNA 2 with C39A, U51C, C52A, A53C
B11: target 1 C7G,G17U (mixed)
RNA 1: B1 RNA 1
RNA 2: B1 RNA 2 with G35U, A42U, U43A, A44U, G46C
B12: target 1 del7,del9 (mixed)
RNA 1: B1 RNA 1
RNA 2: GGGAAUGGAUCCACAUCUACGAAUUCGUACCAUAGAGAGGUUUCGCUCACCGAGAUCGGAAGAGCACACGU
B13: target 1 U10G,G12A (mixed)
RNA 1: B1 RNA 1
RNA 2: B1 RNA 2 with G40A, A42G, U43A, A44U, G45C, G46C
B14: target 1 insA 3' of 15,insU 3' of 1 (mixed)
RNA 1: B1 RNA 1
RNA 2: B8 RNA 2 with C39A, U51C, C52A, A53U
B15: target 1 insC 3' of 12,insC 3' of 11 (mixed)
RNA 1: B1 RNA 1
RNA 2: B8 RNA 2 with C39G, G41C, U43C, A44U, U45A, C46U, G48C, C49G, U50C
B16: target 1 insG 3' of 14,insC 3' of 10 (mixed)
RNA 1: B1 RNA 1
RNA 2: B8 RNA 2 with C39G, A44C, U45A, C46U, G48C, C49G, U50C
B17: target 1 C7U,A14U (mixed)
RNA 1: B1 RNA 1
RNA 2: B1 RNA 2 with A38U, A42U, U43A, A44U, G45U, G46C
B18: target 1 C4A,G12A (mixed)
RNA 1: B1 RNA 1
RNA 2: B1 RNA 2 with G40A, A42U, U43A, A44U, G45C, G46C, C48A
B19: target 1 insG 3' of 11,insA 3' of 10 (mixed)
RNA 1: B1 RNA 1
RNA 2: B8 RNA 2 with C39G, G41U, U42G, U45A, C46U, G48C, C49G, U50C
B20: target 1 insC 3' of 22,insG 3' of 14 (mixed)
RNA 1: B1 RNA 1
RNA 2: GGGAAUGGAUCCACAUCUACGAAUUCGUACCCAUAGAGAGGGUUAUCCGCUCACCGAGAUCGGAAGAGCACACGU
B21: target 1 insG 3' of 14,insU 3' of 7 (mixed)
RNA 1: B1 RNA 1
RNA 2: B8 RNA 2 with C39G, C47U, G48C, C49G, U50C
B22: target 1 insA 3' of 4,insU 3' of 1 (mixed)
RNA 1: B1 RNA 1
RNA 2: GGGAAUGGAUCCACAUCUACGAAUUCGUACCAUAGAGAGGUUAUCCGCAUCAUCCGAGAUCGGAAGAGCACACGU
B23: target 1 G5C,A18U (mixed)
RNA 1: B1 RNA 1
RNA 2: B1 RNA 2 with A34U, A42U, U43A, A44U, G45C, G46C, G47C
B24: target 1 insG 3' of 6,insA 3' of 4 (mixed)
RNA 1: B1 RNA 1
RNA 2: B22 RNA 2 with C48G, A49C, U50A, C51U, A52C, U53A
B25: target 1 insC 3' of 22,insU 3' of 9 (mixed)
RNA 1: B1 RNA 1
RNA 2: B20 RNA 2 with G42U, U44A, A45U
B26: target 1 A14G,A16C (mixed)
RNA 1: B1 RNA 1
RNA 2: B1 RNA 2 with A36C, A38G, A42U, U43A, A44U, G45C, G46C
B27: target 1 insU 3' of 13,insA 3' of 10 (mixed)
RNA 1: B1 RNA 1
RNA 2: B8 RNA 2 with C39G, G40U, U45A, C46U, G48C, C49G, U50C
B28: target 1 U3G,C21A (mixed)
RNA 1: B1 RNA 1
RNA 2: B1 RNA 2 with C31A, A42U, U43A, A44U, G45C, G46C, U49G
B29: target 1 C7G,A9U (mixed)
RNA 1: B1 RNA 1
RNA 2: B1 RNA 2 with A42U, A44U, G46C
B30: target 1 insA 3' of 4,insA 3' of 2 (mixed)
RNA 1: B1 RNA 1
RNA 2: B22 RNA 2 with U53A
B31: target 1 C7U,G12C (mixed)
RNA 1: B1 RNA 1
RNA 2: B1 RNA 2 with G40C, A42U, U43A, A44U, G45U, G46C
B32: target 1 insA 3' of 4,insC 3' of 1 (mixed)
RNA 1: B1 RNA 1
RNA 2: B22 RNA 2 with U53C
B33: target 1 insA 3' of 22,insA 3' of 2 (mixed)
RNA 1: B1 RNA 1
RNA 2: B2 RNA 2 with C53A
B34: target 1 insC 3' of 11,insG 3' of 11 (mixed)
RNA 1: B1 RNA 1
RNA 2: GGGAAUGGAUCCACAUCUACGAAUUCGUACCAUAGAGAGGUCGUAUCCGCUCACCGAGAUCGGAAGAGCACACGU

Target: T1, EsCas13d, nuclease-dead
Test: crRNA (strand 1, pre-loaded); Mg2+; 40 mM Tris-HCl pH 7.5, 150 mM NaCl, 6 mM MgCl2, 1 mM DTT, 0.1% Tween-20, 0.2 mg/ml BSA; 25 C; 10 min per concentration, then washed
Settings: tags: His6-TwinStrep-SUMO cleaved; N-terminal SNAP kept (SNAP-Surface 488); label: 3' end held by stalled T7 RNA polymerase

| Binder | Kd [nM] |
| --- | --- |
| B1 | 10.1 ± 0.6 |
| B2 | 12.8 ± 0.8 |
| B3 | 15.8 ± 1.4 |
| B4 | 6.4 ± 0.4 |
| B5 | 4 ± 0.29 |
| B6 | 90 ± 32 |
| B7 | 31.8 ± 1.6 |
| B8 | 43 ± 4 |
| B9 | 5.96 ± 0.32 |
| B10 | 7.1 ± 0.8 |
| B11 | 35 ± 5 |
| B12 | 12.3 ± 0.9 |
| B13 | 32.9 ± 2.7 |
| B14 | 6.7 ± 0.7 |
| B15 | 17 ± 2.8 |
| B16 | 47 ± 12 |
| B17 | 37 ± 5 |

| Binder | Kd [nM] |
| --- | --- |
| B18 | 4.9 ± 0.5 |
| B19 | 21.5 ± 2.4 |
| B20 | 47 ± 5 |
| B21 | 18.5 ± 1.2 |
| B22 | 7 ± 0.6 |
| B23 | 27 ± 4 |
| B24 | 6.9 ± 0.4 |
| B25 | 30 ± 5 |
| B26 | 67 ± 11 |
| B27 | 26 ± 5 |
| B28 | 41 ± 14 |
| B29 | 7.61 ± 0.27 |
| B30 | 6.2 ± 0.5 |
| B31 | 9.7 ± 0.7 |
| B32 | 18.9 ± 3.3 |
| B33 | 12.7 ± 0.5 |
| B34 | 42 ± 4 |
